From US20250277027A1 (POPULAS BIOPHARMACEUTICAL WUHAN, published 2025)

Columns and labels:
[1] = target: T1, polypeptide C9797BL020-7; test: affinity sorting, kinetic fit in RU, antibody as analyte solution
T1 construct: also called antigen peptide
T1 peptide: CDSVNVDKQPKYEYS

[2] = target: SCN9A-4-B2M; test: SPR, ligand SCN9A-4-B2M, analyte 5C12D2C8, 1:1 binding fit; analyte at 12.5 to 400 nM per paragraph 79
[3] = target: T1, polypeptide C9797BL020-7; test: SPR, antibody at 12.5, 25, 50, 100, 200 and 400 nM

B1: monoclonal antibody 5C12D2C8 (antibody, V domains shown)
VH: EVQLVESGGDLVKPGGSLKLSCAASGFTFSSGGMSWVRQTPDKRLEWVATISNGGGETYYEDSVKGRFTISRDNAKNTLYLQMNSLKSEDTAMYYCAREEYEGTWYEDVWGAGTTVTVSS
VL: DVLMTQTPLSLPVSLGDQASISCTSSQSGVHSNGNTELEWYLQKPGQSPKLLIYKVSNRTSGVPDRFSGSGSGTDFTLKISRVEAEDLGVYYCGQGSHVGRTFGGGTKLEIKR
Q: Which Kd [1] does the source give for B1 here?
A: 4.55 nM

Q: What about the koff [1] of the same binder?
A: 0.00023 s⁻¹

Q: What about the kon [1] of the same binder?
A: 50600 M⁻¹ s⁻¹

Q: And the kon [2]?
A: 28100 M⁻¹ s⁻¹

Q: What about the Kd [3] of the same binder?
A: 8.78 nM

Q: What about the koff [3] of the same binder?
A: 0.000247 s⁻¹
